Source: patent publication US5861501

System: influenza endonuclease (purified viral ribonucleoprotein, low-pH treated; polymerase-associated cap-dependent endonuclease) (Influenza virus)
Test: competition
Details: 5'-triphosphate; 2'-OMe on G1; 3'-terminal 3'-dA; filter retention competition; binding is cap dependent; scale: % of labeled capped 10-mer binding competed at up to 150 nM

## GUAUUAAUAA [5'-triphosphorylated 10-mer (uncapped)]
  binding signal: 10
